Measurements taken from IntAct's records for PubMed 21984795.

B1: Biopolymer transport protein ExbD (Escherichia coli (strain K12)), P0ABV2 (parent)
chain: MAMHLNENLDDNGEMHDINVTPFIDVMLVLLIIFMVAAPLATVDVKVNLPASTSTPQPRPEKPVYLSVKADNSMFIGNDPVTDETMITALNALTEGKKDTTIFFRADKTVDYETLMKVMDTLHQAGYLKIGLVGEETAKAK
partner: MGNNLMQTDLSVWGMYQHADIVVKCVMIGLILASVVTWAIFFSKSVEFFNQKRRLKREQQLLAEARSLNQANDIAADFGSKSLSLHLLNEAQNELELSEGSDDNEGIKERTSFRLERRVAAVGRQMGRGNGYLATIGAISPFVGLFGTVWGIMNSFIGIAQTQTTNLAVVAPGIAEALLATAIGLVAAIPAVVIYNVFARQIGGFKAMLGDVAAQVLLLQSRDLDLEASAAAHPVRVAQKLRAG
B2: Biopolymer transport protein ExbD (Escherichia coli (strain K12)), P0ABV2 (parent)
chain: B1 chain

Variants of: B1
Conditions: with exbb_ecoli exbB

| Variant | effect of a mutation on the interaction |
| --- | --- |
| D25N | disrupting interaction |
| E113C | increasing interaction |

The remaining lines, values ahead:

| effect of a mutation on the interaction | Variant |
| --- | --- |
| increasing interaction | K108C |
| increasing interaction | M116C |
| increasing interaction | Y112C |

Variants of: B2
Conditions: with tonb_ecoli tonB

| Variant | effect of a mutation on the interaction |
| --- | --- |
| A92C | increasing interaction |
| G96C | increasing interaction |
| T109C | increasing interaction |
| D120C | increasing interaction |
| E113C | increasing interaction |
| V110C | increasing interaction |
| K108C | increasing interaction |
| D111C | increasing interaction |

Further lines, results first:

| effect of a mutation on the interaction | Variant |
| --- | --- |
| increasing interaction | Y112C |
| increasing interaction | M116C |
| increasing interaction | I102C |
| increasing interaction | D107C |
